# Target: histone H4 (UniProt P62806 2-103)
# Assay: IP with anti-TOX from EL4 lysate, Western blot (FIG. 60L)
binder,measurement,value
"TOX (other, Bait of the immunoprecipitations (anti-TOX ab155768, Abcam); also called TOX protein) MDVRFYPPPAQPAAAPAAPCLGPSPCLDPYYCNKFDGENMYMSMTEPSQDYVPASQSYPGPSLESEDFNIPPITPPSLPDHSLVHLNEVESGYHSLCHPMNHNGLLPFHPQTMDLPEITVSNMLGQDGALLSNSISVMQEIGNAEGAQYSSHPQMAAMRPRGQPTDIRQQASMMQPGQLTTINQSQLSAQLGLNMGGTNVAHNSPSPPGSKSATPSPSSSVHEDECEDASKINGGEKRPASDMGKKPKTPKKKKKKDPNEPQKPVSAYALFFRDTQAAIKGQNPNATFGEVSKIVASMWDGLGEEQKQVYKKKTEAAKKEYLKQLAAYRASLVSKSYTDPVDVKTSQPPQLVNSKPSVFHGPSQAHSALYLSSHYHQQPGMTPQLTAMHPSLPRNIAPKPNNQMPVTVSIANMAVSPPPPLQISPPLHQHLSMQQHQSLAMQQPLGSQLPMQVQTALHSPTMQQGFTLQPDYQTIINPTSTAAQVVTQAMEYVRSGCRNPPPQPVDWSTDYCSSGGMQRDKALYLT",binding result,binds

# Reference: patent US20210071139A1 (published 2021)
